Measured values from patent publication US20230066984A1, “New Carbon Glycoside Glycosyltransferase and Use Thereof” (CAS Center for Excellence in Molecular Plant Sciences, priority 2020, published 2023).

Experiment: In vitro functional identification of C-glycosyltransferases by HPLC, phloretin as glycosyl receptor
Assay type: biochemical
Details: 0.1 mM phloretin, 0.3 mM UDP glucose, crude enzyme, 37° C., 2 h, HPLC (FIG. 1A)
Experimental: The recombinant plasmid was transformed into competent cells of Escherichia coli BL21 (DE3), and cultured overnight at 37° C. in solid LB medium (kanamycin 50 μg/mL). Single colony was transferred to a 2 mL LB liquid medium (containing 50 μg/ml kanamycin) and incubated overnight. The bacterial fluid was transferred to a new 100 ml LB liquid medium with antibiotics and incubated at 37° C. and 250 r/min until OD600 reached 0.5-0.6. The culture was cooled down to 16° C. in a water bath. Then inducer IPTG was added at a final concentration of 0.1 mM. The mixture was cultured at 16° C. for low temperature induction and 180 r/min for 20 h. The BL21(DE3) recombinant strain carrying the pET28a empty plasmid was used as a blank control, and the culture operation was the same as above. The bacteria were harvested by centrifugation (6000 r/min, 5 min), re-suspended in 1 mL of lysis buffer Buffer A (20 mM Tris-HCl, pH 8.0; 100 mM NaCl), and DNase was added to a final concentration of 5 μg/mL, Mg^2+ to a final concentration of 2 mM; protease inhibitor PMSF to a final concentration of 1 mM; the bacteria were incubated on ice for 30 min and then sonicated; refrigerated centrifugation (10,000 rpm, 30 min, 4° C.), filtered through a 0.2 µm filter membrane to obtain the supernatant crude enzyme solution, and added 20% glycerol for cryopreservation (−20° C.).
The in vitro enzyme catalytic assay system is 100 μL. The reaction system includes: 0.1 mM glycosyl receptor (phloretin or 2-hydroxynaringenin), 0.3 mM UDP glucose, 25 μL supernatant crude enzyme solution, and Buffer A is used to make up the volume to 100 μL, and react at 37° C. for 2 h. After the reaction was completed, an equal volume of methanol was added to terminate the reaction, and HPLC was used for product analysis. HPLC detection conditions: chromatographic column: reverse phase C18 column [SilGreen ODS column (ø 4.6×250 mm)], detection wavelength 280 nm; mobile phase: acetonitrile (0.1% formic acid)-water (0.1% formic acid) mixture gradient elution, with increased ratio from 5:95 to 100:0 within 0 to 20 min, and the flow rate was 1 mL/min.

| Molecule | conversion of substrate phloretin to C-glycosylated product (Nothofagin) | 5′ C-glycosylation of 3′-glycosylated phloretin giving phloretin-3′,5′-C-diglucoside |
| --- | --- | --- |
| TaCGT2-D: C-glycosyltransferase from wheat, SEQ ID NO: 13 (protein, listed as Triticum aestivum) MASSSRDDRAGAAAPRPRIVLIPSAGMGHLAPFSRLAAALSSGHTCNVSLVTVLPTVSSAESGHLDALFAAFPAVRRLDFQLPPLDAPELSGADPFYVHYEATRRSARLLAPLLAAADASALVADISLASVLIPVASELRLPCYVFFTASATMFSFYAYYPTYLDAAGAGDADVPGVYRIPKSSFPQALHDRNNLFTQQFVANGQSLSKADGLLINTFDALEPEAVTALRQGSVVPGFPPVFNVGPLSPVSFPARASSDYSAWLDAQPERSVVYVSFGSRKALARDQLSELADGLEASGCRFLWVVKGTVVDKDDGAELSELLGEGFLQRVSGRALVTKAWVEQGEVLKHPAIGMFVSHCGWNSLTEAFASGVPVLAWPRFADQRVNAGIVARRGAGVWVERWSWEGDDGVVKGEEIAEKVKSVMADEMLRRSSTVVREAAMTAVAGGGTSYRSLAELVARCCDGSASNAPSEA | can convert the substrate phloretin to a product having a shorter retention time | – |
| ZmCGT4: C-glycosyltransferase from maize, SEQ ID NO: 14 (protein, Zea mays) MSSPAPSSASRSSHGSRGSPRIVLFPSAGMGHLVPFTRLAVALSAGHGCEISLLTALPTVSSAESRHIAALYAAFPAIRQLDLRFAPFDASSEFPGADPFYLRYEALRRCAPSLLGPLLAGAGASALVVDMALASVAIPVARELHVPCFVFFTASATMLSFKAYFPTYLDDVGAGHGVGDVDVPGVYRIPSSSVPQALHDPDNIFTRQFVANGRALATADGLLVNAFHAMEPEAVEALQGRFVLSVLPPVFAVGPLMPVNDLRETGEAAQKQGNYRAWLDEQPPRSVVYVSFGSRKALPKDQIKELAAGLEACGHRFLWVVKGAVVDRDDAGELSELLGEAFLRRVHGRGLVTKSWVEQEEVLRHPAVALFVSHCGWNSVTEAVSSGVPVLAWPRFADQRVNARVVVRCGLGVWADQWSWEGEEALVRAEEITALVMEAMEDDAMAVKAANVREAASRAVVDGGTSYRSLAAFVRRCTA | can convert the substrate phloretin to a product having a shorter retention time | – |
| ZmCGT5: C-glycosyltransferase from maize, SEQ ID NO: 15 (protein, Zea mays) MSSPAPSSPSRSSHGSRSSPRIVLFPSAGMGHLVPFTRLAVALSAGHGCDISLVTALPTVSSAESRHIAALYAAFPAIRQLDLRFAPFDASSEFPGADPFYLRYEALRRCAPSLLGPLLAGAGASALVVDMALASVAIPVARELHVPCFVFFTASATMLSFKAYFPTYLDDVGAGHGVGDVDVPGVYRIPSSSVPQALHDPDNIFTRQFVANGRALATADGLLVNAFHAMEPEAVEALQGRFVLSVLPPVFAVGPLMPVNDLRETGEAAQKQGNYRAWLDEQPPRSVVYVSFGSRKALPKDQIKELAAGLEACGHRFLWVVKGAVVDRDDAGELSELLGEAFLRRVHGRGLVTKSWVEQEEVLRHPAVALFVSHCGWNSVTEAVSSGVPVLAWPRFADQRVNARVVVRCGLGVWADQWSWEGEEALVRAEEITALVMEAMEDDAMAVKAANVREAASRAVVDGGTSYRSLAAFVRRCTA | can convert the substrate phloretin to a product having a shorter retention time | – |
| BdCGT1: C-glycosyltransferase from Brachypodium distachyo, SEQ ID NO: 16 (protein, Brachypodium distachyon) MPTSGDGPTSQPHVVLLPSAGMGHLVPFSRLAVALSSAHGCDVSLVTVLPTVSSAESSHLEALFGAFPAVRRLEFHLADFDASEFPNADPFFLRFEAMRRSAPLLLGPLLARASATALVTDIALSSVVIPVAKQLRLPCYVLFTASAAMLSLCVHFPAYLDANGNGLVGDVDIPGVYQIPKASVPQALHDPKHLFTRQFVANGRELAKSDGVLVNSFDAFEPEAIAALREGAVSAAGFFPPVFSVGPLAPVSFPAGNNNRADYIQWLEAQPARSVVYVSFGSRKAVARDQLRELAAGLEASGHRFLWVVKSTVVDRDDDADLGELLGEGFLERVQGRGMVTKGWVEQEDVLKQESVGLFISHCGWNSVTEAAAGGLPVLAWPRFGDQRVNAGVVARSGLGVWVDSWSWEGEEGVVSGESIAEKVKAVMGDEIARNKAVSVRDAAAKAVADGGTSYRNLARFAQRCRDGRVRE | can convert the substrate phloretin to a product having a shorter retention time | – |
| SiCGT1: C-glycosyltransferase from millet, SEQ ID NO: 17 (protein, listed as Setaria italica) MPTSGDHSGARPHVVLLPSAGMGHLVPFGRLAVALSAGHGCDVSVAAVLPTVSSAEARHLEALFAAADPAVRRLDFRLAPFDASEFPGADPFFLRFEAMRRSAPLLGPLLATAGASAVVTDIVLASVVLPVARECGVPCYVLFTASAAMLAFCAHFPGYLDANSAAGRAGVVGDVDIPGVYRIPKSSVPQALHDPKHLFTQQFVANGRGLVDADGILVNTFDALEPEAVTALRKGKVVSSFPLVFAVGPLLPVMFPAKDPAGYMQWLDAQPARSVVYVSFGSRTAISPDQLLELAAGLEASGHRFLWVVKSTVVDRDDAGELGDLLGHGFLERVRGRALVTKGWVEQEEILQHGSVGLFVSHCGWNSVTEAAAFGVPVLAWPRFGDQRINAAVVTRGGLGAWEERWSWDGEEGLVSGEEVGEKIKAVMADETVAKKAAAVGDAAAAAATSKGGTSYRSLAEFVGRCRDAGSRQDR | can convert the substrate phloretin to a product having a shorter retention time | can catalyze the glycosylation of the 3′-glycosylated phloretin at the 5′ position |
| SiCGT2: C-glycosyltransferase from millet, SEQ ID NO: 18 (protein, listed as Setaria italica) MSSPPPPNSTSDDCQGTAATPHIVLFPSAGMGHLVPFTRLAVALSAGHCCDVSLVTALPTVSSAESCHIAALFAAFPAVRRLDLRLAPLDASSEFPGADPFYVRYEALRRSTPLLLGPLLAGASASALVADIALASVAIPVARELRVPCYVFFTASATMLSFKAYFPTYLDANGGAGHSVGDVDVPGVCRVPRSSIPQALHDPDDIFTRQFVANGRALVAADGLLVNAFEAMEPEAVAALLGGSVVASLPPVFAVGPLMPLNLREAAEEQGNYRAWLDAQPPRSVVYVSFGSRKALARDQIRELAAWLEACGHRFLWVVKGAVVDRDDACELSDLLGEGFQRRVEGRGLVTKSWVEQDEVLRHPAVGLFVSHCGWNSVTEAAANGVPVLAWPRFADQRVNARVVARAGFGVWVERWSWEGEEAVVGAEEIAEQVVAAMGDQAVAEKAASVRDEAARAVADGGTSQQSLAEFVRRCRGGLAGPGTDLGRTWTARG | can convert the substrate phloretin to a product having a shorter retention time | – |
| OsCGT: C-glycosyltransferase from Japonica rice, SEQ ID NO: 19 (protein, Oryza Sativa japonica) MPSSGDAAGRRPHVVLIPSAGMGHLVPFGRLAVALSSGHGCDVSLVTVLPTVSTAESKHLDALFDAFPAVRRLDFELAPFDASEFPSADPFFLRFEAMRRSAPLLGPLLTGAGASALATDIALTSVVIPVAKEQGLPCHILFTASAAMLSLCAYFPTYLDANAGDGGGVGDVDIPGVYRIPKASIPQALHDPNHLFTRQFVANGRSLTSAAGILVNTFDALEPEAVAALQQGKVASGFPPVFAVGPLLPASNQAKDPQANYMEWLDAQPARSVVYVSFGSRKAISGEQLRELAAGLETSGHRFLWVVKSTVVDRDDAAELGELLGEGFLKRVEKRGLVTKAWVDQEEVLKHESVALFVSHCGWNSVTEAAASGVPVLALPRFGDQRVNSGVVARAGLGVWADTWSWEGEAGVIGAEEISEKVKAAMADEALRRKAASLAKAAAKAVAGGGSSHRCLVEFARLCQGGTCRTN | can convert the substrate phloretin to a product having a shorter retention time | can catalyze the glycosylation of the 3′-glycosylated phloretin at the 5′ position |
| ZmCGT: C-glycosyltransferase from maize, SEQ ID NO: 20 (protein, Zea mays) MAANGGDHTSARPHVVLLPSAGMGHLVPFARLAVALSEGHGCNVSVAAVQPTVSSAESRLLDALFVAAAPAVRRLDFRLAPFDESEFPGADPFFLRFEATRRSAPLLGPLLDAAEASALVTDIVLASVALPVARERGVPCYVLFTSSAAMLSLCAYFPAYLDAHAAAGSVGVGVGNVDIPGVFRIPKSSVPQALHDPDHLFTQQFVANGRCLVACDGILVNTFDAFEPDAVTALRQGSITVSGGFPPVFTVGPMLPVRFQAEETADYMRWLSAQPPRSVVYVSFGSRKAIPRDQLRELAAGLEASGKRFLWVVKSTIVDRDDTADLGGLLGDGFLERVQGRAFVTMGWVEQEEILQHGSVGLFISHCGWNSLTEAAAFGVPVLAWPRFGDQRVNAALVARSGLGAWEEGWTWDGEEGLTTRKEVAKKIKGMMGYDAVAEKAAKVGDAAAAAIAKCGTSYQSLEEFVQRCRDAERK | can convert the substrate phloretin to a product having a shorter retention time | can catalyze the glycosylation of the 3′-glycosylated phloretin at the 5′ position |
